In patent publication US10654917B2, “Antibody molecules and peptide delivery systems for use in alzheimer's disease and related disorders” (TECHNOPHAGE, INVESTIGAÇĀO E DESENVOLVIMENTO EM …, priority 2015, dated 2020):

B1: #20: anti-BAP42 sdAb, SEQ ID NO: 2 (protein)
VHH: ELDLTQTPSSKSVPVGDTVTINCQASESVYSNNRLAWFQQKPGQPPKLLIYYASTLASGVPSRFKGSGSGTQFTLTISDVVCDDAATYYCAGYKSSTSDGIAFGGGTEVVVK
modifications: /note=“Description of Unknown rabbit immunoglobulin VL domain polypeptide”; /note=“#20”
B2: #26: anti-BAP42 sdAb, SEQ ID NO: 18 (antibody, V domains shown)
VL: ELDLTQTPSPVSAAVGGTVTISCQSSESVYSNNRLAWYQQKPGQPPKLLIYLASSLASGVPSRFKGSGSGTQFTLTIRDLECDDAATYYCLGYRSGSDGDAFGGGTELEIL
B3: #2: anti-BAP42 sdAb, SEQ ID NO: 1 (antibody, V domains shown)
VL: ELVMTQTPSPVSAAVGGTVSISCQSSKSVYNNNWLSWFQQKPGQPPKLLIYSASTLASGVSSRFKGSGSGTQFTLTISDVQCDDAATYYCQGEFDCSGDCNVFGGGTELEIL

Key:
[1] = CAT-fusion assay: chloramphenicol resistance as measure of sdAb stability; type: cell-based, E. coli
Description: Clones were further selected for stability using a modified CAT-fusion assay, as previously described (see, e.g., WO 2008/136694 to Goncalves et al). Specifically, the CAT gene was amplified from pCAT (Stratagene) by PCR and inserted into pET-derived plasmid using EcoRI and SphI restriction sites to create the pE-CAT. The 5′PCR primer originally used to clone the variable domains was also designed to contain two sequential and different SfiI cloning sites, and an amber codon (TAG) just before the beginning of the CAT gene.
To clone single-domain antibody libraries fused into the CAT gene, SDVL fragments were generated by PCR from phagemid vectors selected by panning. The resulting SDVL PCR fragments were gel-purified, digested with the restriction endonuclease SfiI, and cloned independently into the appropriately SfiI-cut vector pE-CAT. The pSDVL-CAT constructs were under the control of the strong Lac promoter that also included an N-terminal His6 affinity tag and the ampicillin resistance gene. Alternatively, SDVL fragments may be cloned into readily available vectors designed to express cloned sequences as fusion proteins with CAT, e.g., the PCFN1 vector (see Maxwell, et al (1999) J Prot Sci 8:1908-1911, incorporated by reference in its entirety).
Chloramphenicol resistance assays were performed by transforming ER2783 cells (New England Biolabs, Inc) with each single domain CAT-fusion library. The transformation mixtures were inoculated into 5 mL of SOC and incubated at 37° C. for 1 hour. Next, 10 mL of SB medium with 3 μL of 100 mg/ml ampicillin was added to each library. A total of 15 mL of each culture was shaken for 1 hour at 37° C. Subsequently, 4.5 μL of 100 mg/ml ampicillin was added and cultures shaken for one hour at 37° C. Then 85 mL of SB medium with 85 μL of 100 mg/ml ampicillin was added and cultures grown overnight at 37° C. The following day, 600 μL of each culture was used to inoculate 20 mL of SB medium containing 100 μg/mL of ampicillin.
Expression of CAT-fusion single domain proteins was induced by addition of 0.5 mM IPTG when the optical density of cultures reached 0.9 (at […]). After 2 hours of incubation at 37° C., 100 μL aliquots of each library were plated on agar plates with IPTG (200 μg/mL) and various concentrations of chloramphenicol. Plates were incubated at 37° C. for 16-20 hours. The level of resistance was quantified as the highest level of chloramphenicol at which colonies appeared after the 37° C. incubation period. […] Results are shown in Table 6, below, where +++ indicates over 600 colonies detected; ++ indicates 400-600 colonies detected; + indicates 1-399 colonies detected; and − indicates no colonies detected at the corresponding chloramphenicol concentration. “sdAb2”, “sdAb6”, “sdAb20”, and “sdAb26” are sdAb candidates that bind BAP42 oligomers.

oligomeric form of BAP42 = target: T1, oligomeric form of BAP42 (Homo sapiens, UniProt P05067); experiment: BIAcore binding profile to BAP42 oligomers
T1 construct: “beta-amyloid peptide 42”, or “beta-amyloid peptide 1-42”; oligomerised in house (1 mg/mL, stirring 16 h at 37 °C, retained on 5 kDa filter)
Description: Anti-oligomer sdAbs where characterized further regarding their relative binding profile to BAP42 oligomers by BIAcore.
Results are showing in FIGS. 16A-16D, respectively (kinetic studies) and Tables 14-16, respectively (biodistribution studies), presented below.

[2] = design: species or system CD1 mice; details: mouse, in vivo
Method: The different antibody-peptide constructs were used in biodistribution assays, and results compared with the biodistribution of the respective DEN2C peptides (pepH1, pepH2, pepH3, and pepM′, chemically synthesized). […] After expression and purification, the sdAbs and sdAb-peptide constructs were conjugated to technetium (^99Tc) and a biodistribution assay was performed, as previously described.
Tables 14-16 show the biodistribution of different anti-BAP42 sdAbs and constructs thereof with different peptides (“pepH3”).

[3] = 10^0, [chloramphenicol] 0.03 mM
[4] = 10^0, [chloramphenicol] 0.06 mM
[5] = 10^0, [chloramphenicol] 0.25 mM
[6] = 10^0, [chloramphenicol] 0.31 mM
[7] = 10^0, [chloramphenicol] 0.62 mM
[8] = 10^0, [chloramphenicol] 1.24 mM
[9] = 10^0, [chloramphenicol] 1.86 mM
[10] = 10^0, [chloramphenicol] 2.48 mM
[11] = 10^−2, [chloramphenicol] 0.03 mM
[12] = 10^−2, [chloramphenicol] 0.06 mM
[13] = 10^−2, [chloramphenicol] 0.25 mM
[14] = 10^−2, [chloramphenicol] 0.31 mM
[15] = 10^−2, [chloramphenicol] 0.62 mM
[16] = 10^−2, [chloramphenicol] 1.24 mM
[17] = 10^−2, [chloramphenicol] 1.86 mM
[18] = 10^−2, [chloramphenicol] 2.48 mM

T1 sequence (P05067 672-713 limits assumed): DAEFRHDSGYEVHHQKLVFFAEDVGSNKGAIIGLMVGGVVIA

Molecule	colonies detected (CAT-fusion chloramphenicol resistance) [1, 3]	colonies detected (CAT-fusion chloramphenicol resistance) [1, 4]	colonies detected (CAT-fusion chloramphenicol resistance) [1, 5]	colonies detected (CAT-fusion chloramphenicol resistance) [1, 6]	colonies detected (CAT-fusion chloramphenicol resistance) [1, 7]	colonies detected (CAT-fusion chloramphenicol resistance) [1, 8]	colonies detected (CAT-fusion chloramphenicol resistance) [1, 9]	colonies detected (CAT-fusion chloramphenicol resistance) [1, 10]	colonies detected (CAT-fusion chloramphenicol resistance) [1, 11]	colonies detected (CAT-fusion chloramphenicol resistance) [1, 12]	colonies detected (CAT-fusion chloramphenicol resistance) [1, 13]	colonies detected (CAT-fusion chloramphenicol resistance) [1, 14]	colonies detected (CAT-fusion chloramphenicol resistance) [1, 15]	colonies detected (CAT-fusion chloramphenicol resistance) [1, 16]	colonies detected (CAT-fusion chloramphenicol resistance) [1, 17]	colonies detected (CAT-fusion chloramphenicol resistance) [1, 18]	binding profile to the oligomeric form of BAP42 (oligomeric form of BAP42)	factor by which washout from the brain is slowed on linking to delivery peptide pepH3 [2]	factor of increase of presence in the brain on linking to delivery peptide pepH3 [2]
B1	+++ (+++ indicates over 600 colonies detected)	+++ (+++ indicates over 600 colonies detected)	+++ (+++ indicates over 600 colonies detected)	+++ (+++ indicates over 600 colonies detected)	+++ (+++ indicates over 600 colonies detected)	+++ (+++ indicates over 600 colonies detected)	+++ (+++ indicates over 600 colonies detected)	++ (++ indicates 400-600 colonies detected)	+++ (+++ indicates over 600 colonies detected)	+++ (+++ indicates over 600 colonies detected)	+++ (+++ indicates over 600 colonies detected)	+++ (+++ indicates over 600 colonies detected)	+++ (+++ indicates over 600 colonies detected)	+++ (+++ indicates over 600 colonies detected)	− (− indicates no colonies detected)	− (− indicates no colonies detected)	best binding profiles		
B2	+++ (+++ indicates over 600 colonies detected)	+++ (+++ indicates over 600 colonies detected)	+++ (+++ indicates over 600 colonies detected)	+++ (+++ indicates over 600 colonies detected)	+++ (+++ indicates over 600 colonies detected)	+++ (+++ indicates over 600 colonies detected)	+++ (+++ indicates over 600 colonies detected)	++ (++ indicates 400-600 colonies detected)	+++ (+++ indicates over 600 colonies detected)	+++ (+++ indicates over 600 colonies detected)	+++ (+++ indicates over 600 colonies detected)	+++ (+++ indicates over 600 colonies detected)	+++ (+++ indicates over 600 colonies detected)	+++ (+++ indicates over 600 colonies detected)	− (− indicates no colonies detected)	− (− indicates no colonies detected)	best binding profiles		
B3	+++ (+++ indicates over 600 colonies detected)	+++ (+++ indicates over 600 colonies detected)	+++ (+++ indicates over 600 colonies detected)	+++ (+++ indicates over 600 colonies detected)	+++ (+++ indicates over 600 colonies detected)	+++ (+++ indicates over 600 colonies detected)	+++ (+++ indicates over 600 colonies detected)	++ (++ indicates 400-600 colonies detected)	+++ (+++ indicates over 600 colonies detected)	+++ (+++ indicates over 600 colonies detected)	+++ (+++ indicates over 600 colonies detected)	+++ (+++ indicates over 600 colonies detected)	+++ (+++ indicates over 600 colonies detected)	+++ (+++ indicates over 600 colonies detected)	− (− indicates no colonies detected)	− (− indicates no colonies detected)	best binding profiles	about 2	about 3
